Source: US11725026B2, “Compositions and methods for inhibiting lactate dehydrogenase a activity” (Research Foundation for SUNY, priority 2019, dated 2023)
Where a SMILES comes first, the peptide text is derived from it. Where no end group is shown, it is not given here.

How the values were obtained:
LDHA [1] = target: T1, LDHA (Homo sapiens, UniProt P00338); assay: Fluorescence anisotropy binding of Rhodamine-B-labeled FLCN peptides to recombinant LDHA
T1 construct: a complex of FLCN-10 peptide with full-length recombinant LDHA; 6xHis (leader of vector pRSET-A) (N); made in house; host or cells: E. coli BL21 (DE3)
Description: LDHA at the indicated concentrations was incubated on ice in 50 mM Tris pH 7.2, 150 mM NaCl, 1 mM TCEP, 4 mM MgCl2 with […] labelled FLCN peptide for 30 min.
Fluorescence anisotropy was measured using a SpectraMax 3 equipped with rhodamine fluorescence polarization module (lex\lem.535 nm/595 nm). Curve fitting was done in KaleidaGraph 4.0.
LDHA at the indicated concentrations was incubated on ice in 50 mM Tris pH 7.2, 150 mM NaCl, 1 mM TCEP, 4 mM MgCl2 with […] Rhodamine-B-labeled FLCN peptide for 30 min. Fluorescence anisotropy was measured in triplicate using a SpectraMax i3 equipped with rhodamine fluorescence polarization module (lex\lem.535 nm/595 nm). Curve fitting was done in KaleidaGraph 4.0.

LDHA [2] = target: T1, LDHA; assay: LDH activity assay (MAK066) with recombinant LDHA; type: biochemical; conditions: 25 ng recombinant LDHA pre-incubated with peptide 30 min on ice
Description: Lactate dehydrogenase activity was measured according to the manufacturer's protocol (MAK066, Sigma-Aldrich). […] Samples were then transferred to an optically clear 96-well plate and substrate mix was added to each well. Absorbance was measured at 450 nm every five minutes until saturation. […] All experiments were carried out in triplicate.
Lactate dehydrogenase activity was measured according to the manufacturer's protocol (MAK066, Sigma-Aldrich). […] Samples were then transferred to an optically clear 96-well plate and substrate mix was added to each well. Absorbance was measured at 450 nm every five min until saturation.

[3] = test system: renal tumor tissue and adjacent normal kidney-tissue from a BHD patient; assay: Ex vivo peptide treatment of BHD patient renal tumor and adjacent normal tissue; parameters: species or system human; conditions: FLCN-10-Rhodamine B, 2 h at 37° C., fluorescence microscopy
Description: Tumor tissues from the BHD patient were obtained with written informed consent from the Department of Urology at SUNY (State University of New York) Upstate Medical University. At the time of partial nephrectomy, which was done with <15 min of renal ischemia, BHD tumors were dissected into 3-5 mm^3 pieces and cultured on a presoaked gelatin sponge (Johnson & Johnson) in 24-well plates containing 2 ml RPMI-1640 with 10% FBS, antibiotic/antimycotic solution. Tissues were cultured at 37° C. for 16 hr, followed by the addition of the indicated concentrations of FLCN-10-Rhod-B and further incubation at 37° C. for 2 hr.
Tumor and adjacent normal renal tissue from the BHD patient were obtained with written informed consent on an Institutional Review Board (IRB)-approved protocol from the Department of Urology at SUNY Upstate Medical University. At the time of partial nephrectomy, which was done with <15 min of renal ischemia, BHD tumors were dissected into 3- to 5-mm^3 pieces and cultured on a presoaked gelatin sponge (Johnson & Johnson) in 24-well plates containing 2 ml RPMI-1640 with 10% FBS and antibiotic/antimycotic solution. Tissues were cultured at 37° C. for 16 h, followed by the addition of the indicated concentrations of FLCN-10-Rhod-B and further incubation at 37° C. for 2 h. […]

LDHA (pTyr10-LDHA) = target: T2, LDHA (pTyr10-LDHA) (Homo sapiens, UniProt P00338); assay: LDHA activity in cells by pTyr10-LDHA immunoblot; type: cell-based
T2 construct: a panel of cancer cell lines were immunoblotted to observe levels of endogenous FLCN and pTyr10-LDHA; endogenous in cells; host or cells: Caki-1, HEK293, PC3, A549 and other human cancer cell lines
From the text: The supernatant was then transferred to a fresh microtube.

ccRCC cell lines = assay: Apoptosis / cell death in ccRCC renal cell lines (cleaved PARP/caspase-3 immunoblot, Annexin V/propidium iodide flow cytometry); type: cell-based, human; conditions: Caki-1 cells, Western blot, normalized for amount of peptide residing in cells

QRMNTAFTPFL [FLCN-1, peptide derived from aa220-230 of FLCN]
binding to LDHA (in words) (LDHA [1]; determined by anisotropy): bound tightly to LDHA | Ka of LDHA with FLCN peptide (LDHA [1]; fluorescence polarization anisotropy, n=3): ≈ 1×10^7

CSCC[C@H](NC(=O)[C@H](CCCNC(=N)N)NC(=O)[C@H](CCC(N)=O)NC(=O)[C@H](C)N)C(=O)N[C@@H](CC(N)=O)C(=O)N[C@H](C(=O)N[C@@H](C)C(=O)N[C@@H](Cc1ccccc1)C(=O)N[C@H](C(=O)N1CCC[C@H]1C(=O)O)[C@@H](C)O)[C@@H](C)O [FLCN-10] (H-AQRMNTAFTP-OH; N-terminus and C-terminus assumed)
inhibitory effect on LDHA activity (LDHA [2]): 70% | tissue penetration ex vivo [3]: able to penetrate both normal and tumor tissues

PEGylated FLCN-10: FLCN-10 peptide modified by PEGylation to protect from cellular proteases (AQRMNTAFTP; also: PEGylated, site not given here)
activity against LDHA in Caki-1 cells (LDHA (pTyr10-LDHA)): effective at inhibiting LDHA activity | pro-apoptotic activity of modified FLCN-10 peptides (ccRCC cell lines): minimal pro-apoptotic activity
